Assay results reported in patent US20060121462A1, “Receptor and screening methods” (priority 2003, published 2006).

What was measured:
[1] = biological target: T1, C5L2 (Homo sapiens, UniProt Q9P296); experiment: Fluorescent ligand binding/uptake (FACS), HEK 293 cells transiently transfected with C5L2
T1 construct: expressed in transfected cells
Procedure: (§1) HEK 293 cells were transfected with C3aR (A) or C5L2 (B) and three days later cells were incubated for 30 minutes with the indicated concentrations of FLUOS-labelled C3a or ASP, respectively. Binding/uptake was assessed by FACS, and the percentage of cells above a fluorescence intensity of 8 was determined. The fluorescence histograms at the highest and lowest ligand concentrations are shown in the insets;
(§2) HEK 293 cells were seeded into 6-well plates at 1×10^6 cells/well the day before transfection. C5L2 in vector pEE6hCMV.neo (Celltech) or C3aR in vector pcDNA1/AMP (Invitrogen) at 2 μg DNA/well were transfected with Lipofectamine2000 (5 μl/well) (Invitrogen) according to the manufacturer's protocol. Cells were assayed for binding/uptake three days post-transfection.
(§3) ASP or C3a was labelled with FLUOS (Roche Biochemicals) at a molar ratio of 1:10 (ligand:FLUOS) for two hours according to the manufacturer's recommendations. Labelled ligand was separated from free FLUOS on a Sephadex G25M column and stored in aliquots at −80° C.
(§4) Cells were incubated with the indicated concentrations of FLUOS-labelled ASP or C3a for 30 minutes at 37° C. in binding buffer (23) and washed three times with cold binding buffer. Cells were then detached with 0.25% trypsin/0.02% EDTA in PBS, fixed with 1% paraformaldehyde, washed with PBS, and assayed by fluorescence-activated cell scanning.

[2] = biological target: T2, C3aR (Homo sapiens, UniProt Q16581); experiment: Fluorescent ligand binding/uptake (FACS), HEK 293 cells transiently transfected with C3aR; details: HEK 293 transiently transfected with C3aR; mean±SD, n=3
T2 construct: expressed in transfected cells
T2 sequence (Q16581 1-482): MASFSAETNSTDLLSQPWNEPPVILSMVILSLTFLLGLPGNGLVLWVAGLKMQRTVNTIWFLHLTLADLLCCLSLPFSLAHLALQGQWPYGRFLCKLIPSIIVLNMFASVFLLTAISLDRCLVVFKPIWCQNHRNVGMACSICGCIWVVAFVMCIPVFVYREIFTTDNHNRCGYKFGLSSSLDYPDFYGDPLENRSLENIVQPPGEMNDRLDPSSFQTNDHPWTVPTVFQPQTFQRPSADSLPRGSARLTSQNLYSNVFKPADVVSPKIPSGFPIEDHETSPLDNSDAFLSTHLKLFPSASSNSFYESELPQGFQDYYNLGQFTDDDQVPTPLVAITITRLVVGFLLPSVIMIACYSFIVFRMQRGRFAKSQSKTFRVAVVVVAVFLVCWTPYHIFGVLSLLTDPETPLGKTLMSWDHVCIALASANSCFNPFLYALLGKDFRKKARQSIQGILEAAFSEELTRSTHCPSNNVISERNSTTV
Procedure: as §1, §2, §3, §4

[3] = biological target: T2, C3aR; experiment: Radiolabelled ligand competition receptor binding, C3aR-transfected RBL cells
Description: (§5) C5L2, C3aR and CD88-transfected RBL cells were produced as described (17). G16 was cloned from human monocytes mRNA and authenticated by sequencing. Human G16 and either C5L2 or CD88 were ligated into the bicistronic expression vector pIRES (Qiagen). Stable transfection of RBL-2H3 cells with pIRES constructs was achieved by electroporation (18). Cells underwent three rounds of fluorescence-activated cell sorting using anti-CD88 antibody (clone S5/1; Serotec) or anti-hemagglutinin peptide antibody (Roćhe Molecular Biochemicals, clone 12CA5), selecting the top 5% of receptor-positive cells in each round.
(§6) Competition binding assays were performed using 50 pM ^125I-C5a or ^125I-C3a (NEN) on adherent C5aR-transfected or C5L2-transfected RBL cells in 96-well microtiter plates (55 000/well) at 4° C. as described previously (22). Competition curves were generated by pre-incubating adherent cells with increasing concentrations of unlabelled complement fragments. The IC50, standard error values and linear regression analyses were obtained by using GraphPad Prism 2.0.

[4] = biological target: T1, C5L2; experiment: Competition binding with 125I-C3a, C5L2-transfected RBL cells; details: for IC50 / pD2 ± SE: C5L2 (^125I-C3a) expressed in RBL cells, 50 pM radioligand
Procedure: (§7) FIG. 1 illustrates C3a des-Arg^77 and C4a des-Arg^77 bind to RBL cells expressing C5L2. RBL cells transfected with C5L2 were incubated with the stated concentrations of complement fragments for 10 min prior to the addition of 50 pM ^125I-C3a (A) or 50 pM ^125I-C5a (B). Results are the means of n (n shown in Table 1) separate experiments performed in duplicate±S.E.;
as §5, §6

[5] = biological target: T1, C5L2; experiment: Triglyceride synthesis (3H oleate incorporation) in HEK293 cells stably transfected with C5L2; assay type: cell-based
Procedure: FIG. 15: Functional Response of HEK293 Cells Stably Transfected with C5L2 to ASP and Insulin: Cells were tested for response to ASP and insulin stimulation of triglyceride synthesis with 100 μM ^3H oleate for 4 hours. Results are calculated as nmol ^3H oleate incorporated into triglyceride/mg cell protein where 0 ASP is set as 100%. […] As in many biologic assays, the concentration required for activity at 37° C. under dynamic conditions is greater than the binding affinity (which is assessed at 4° C. under static conditions). For example, insulin Kd is in the pM range, but nM concentrations are required for activity. ASP Kd is high nM range, but biologic activity is in low μM range.

[6] = biological target: T1, C5L2; experiment: Degranulation (β-hexosaminidase) and enhancement of IgE-receptor-mediated degranulation, C5L2-transfected RBL cells; assay type: cell-based
[7] = biological target: T3, CD88+Gα16 (Homo sapiens, UniProt P21730); experiment: Degranulation of CD88+Gα16 co-transfected RBL cells; assay type: cell-based; details: 10 ng/ml PT
T3 construct: expressed in transfected cells
T3 sequence (P21730 1-350): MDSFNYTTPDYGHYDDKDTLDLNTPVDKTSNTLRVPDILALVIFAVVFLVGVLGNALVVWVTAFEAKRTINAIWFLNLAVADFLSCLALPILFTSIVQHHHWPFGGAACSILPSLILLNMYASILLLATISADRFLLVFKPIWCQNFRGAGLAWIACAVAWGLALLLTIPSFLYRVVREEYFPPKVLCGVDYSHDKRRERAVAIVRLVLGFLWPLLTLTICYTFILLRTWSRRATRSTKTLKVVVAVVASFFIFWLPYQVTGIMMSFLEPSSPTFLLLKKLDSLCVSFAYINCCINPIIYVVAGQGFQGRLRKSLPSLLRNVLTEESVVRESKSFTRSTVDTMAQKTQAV

[8] = biological target: T4, CD88 (Homo sapiens, UniProt P21730); experiment: Degranulation of CD88-transfected RBL cells; assay type: cell-based
T4 construct: expressed in transfected cells
T4 sequence (P21730 1-350): T3 sequence (P21730 1-350)

[9] = biological target: T5, human formyl peptide-like receptor-1 (Homo sapiens, UniProt P25090); experiment: Enhancement of degranulation, RBL cells transfected with an irrelevant receptor; assay type: cell-based; details: RBL cells transfected with FPRL-1, FIG. 3B
T5 construct: expressed in transfected cells; host or cells: RBL cells
T5 sequence (P25090 1-351): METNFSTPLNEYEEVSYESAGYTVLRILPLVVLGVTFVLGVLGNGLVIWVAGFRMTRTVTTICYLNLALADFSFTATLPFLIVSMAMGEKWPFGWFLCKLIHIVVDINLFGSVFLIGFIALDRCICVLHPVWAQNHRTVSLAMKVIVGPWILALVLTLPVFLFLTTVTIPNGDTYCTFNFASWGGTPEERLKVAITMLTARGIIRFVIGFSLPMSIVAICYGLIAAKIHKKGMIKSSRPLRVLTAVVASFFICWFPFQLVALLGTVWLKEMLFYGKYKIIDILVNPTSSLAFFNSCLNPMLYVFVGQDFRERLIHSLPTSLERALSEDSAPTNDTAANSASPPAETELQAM
Procedure: FIG. 3 illustrates C3a des-Arg^77 enhances the degranulation response to cross-linkage of the high affinity IgE receptor in cells transfected with C5L2. RBL cells transfected with A), C5L2 or B), an irrelevant receptor (human formyl peptide-like receptor-1) were incubated overnight with […] IgE^DNP and then treated with the stated concentrations of C5a des-Arg^74, C4a des-Arg^77 or C3a des-Arg^77 or ASP for 15 minutes prior to the addition of the cross-linking agent, HSA-DNP at 100 ng/ml. Degranulation was assessed as the secretion of β-hexosaminidase. Results are shown as a percentage of the release stimulated by 100 ng/ml HSA-DNP in the absence of anaphylatoxin (control=1) and are means of 3-6 separate experiments performed in triplicate, ±S.E.
(§8) Cellular activation was measured as the release of -hexosaminidase from intracellular granules (20). In the enhancement of degranulation assay, cells were treated with 1 μg/ml IgE^DNP (21) overnight, then with chemoattractants or peptides for 10 min prior to stimulation with 100 ng/ml DNP-HSA (Sigma) for 15 minutes. EC50 and standard error values were obtained by iterative curve fitting using GraphPad Prism 2.0.

[10] = biological target: T2, C3aR; experiment: Degranulation of C3aR-transfected RBL cells; assay type: cell-based; details: RBL cells transfected with C3aR; data not shown
Procedure: as §8

[11] = biological target: T4, CD88; experiment: Radiolabelled ligand competition receptor binding, CD88-transfected RBL cells
Description: as §5, §6

[12] = biological target: T1, C5L2; experiment: Competition binding with 125I-C5a, C5L2-transfected RBL cells
Procedure: as §7, §5, §6

[13] = HEK-C5L2 stable transfectants, 100 μM ^3H oleate, 4 hours
[14] = C5L2 (^125I-C5a) expressed in RBL cells, 50 pM radioligand

T1 sequence (Q9P296 whole entry): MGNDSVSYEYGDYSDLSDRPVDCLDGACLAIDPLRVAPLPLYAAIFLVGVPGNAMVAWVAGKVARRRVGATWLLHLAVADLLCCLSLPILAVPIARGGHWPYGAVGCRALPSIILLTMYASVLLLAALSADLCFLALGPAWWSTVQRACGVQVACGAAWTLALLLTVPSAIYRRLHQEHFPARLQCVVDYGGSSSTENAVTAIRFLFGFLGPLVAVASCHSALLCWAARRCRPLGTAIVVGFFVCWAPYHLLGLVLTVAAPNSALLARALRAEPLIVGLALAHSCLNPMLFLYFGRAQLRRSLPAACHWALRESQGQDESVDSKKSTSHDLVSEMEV

## FLUOS-ASP: ASP labelled with FLUOS at a molar ratio of 1:10
[1]; HEK 293 transiently transfected with C5L2, 30 minutes at 37° C., flow cytometry, read-out: half maximal fluorescence intensity (binding/uptake)
  Kd: ~0.003 µM
[1]; mock-transfected HEK 293 cells, 10 nM
  binding to mock-transfected cells: no binding
[2]
  binding (basal binding=100%): 103%±14%

## ^125I-ASP: ^125I-labelled ASP [reference compound]
[3]; ^125I-labelled ligand, data not shown
  binding to C3aR-transfected cells: does not bind to C3aR-transfected cells

## ASP: Plasma ASP (C3a des-Arg^77), human C3a des-Arg^77 purified as acylation-stimulating protein
[4]; binding affinity assessed at 4° C. under static conditions
  Kd: high nM range
[5]; 37° C. under dynamic conditions
  concentration for biologic activity: low μM range
[5]; [13]
  stimulation of triglyceride synthesis: increasing triglyceride synthesis in a concentration dependent manner
[5]; non-transfected HEK cells
  stimulation of triglyceride synthesis: not responsive to ASP
[6]; enhancement of IgE-mediated degranulation, FIG. 3A
  EC50 compared with recombinant C3a des-Arg^77: identical EC50

## pertussis toxin [reference compound]
[7]
  effect on degranulation response to C5a: a small inhibition of degranulation
[8]; CD88 alone, 0-10 ng/ml PT for 4 h prior to 50 nM C5a
  effect on degranulation response to C5a: inhibited the degranulation response
[6]; C5L2 alone, 10 ng/ml PT for 4 h, FIG. 4C
  effect on enhancement of degranulation by ASP/C3a des-Arg^77: can be inhibited by pre-treating cells with pertussis toxin

## C3a des-Arg^77
[9]
  enhancement of degranulation: small enhancement of degranulation
[8]; RBL cells transfected with CD88, data not shown
  stimulation of degranulation: neither C3a des-AXg^77 nor C4a des-Arg^77 can stimulate degranulation
[10]
  stimulation of degranulation: neither C3a des-AXg^77 nor C4a des-Arg^77 can stimulate degranulation
[4]
  IC50: 0.526 µM
  pD2 ± SE: 6.24 ± 0.10
[4]; FIG. 1A
  competition with ^125I-C3a for C5L2 binding: can compete strongly
[3]; Table I
  affinity for C3aR: no detectable affinity
[11]
  competition with ^125I-C5a binding to CD88: cannot compete effectively
[12]; [14]
  IC50: 18 µM
  pD2 ± SE: 4.73 ± 0.16
[12]; FIG. 1B
  competition with ^125I-C5a binding to C5L2: cannot compete effectively
[6]; without IgE receptor cross-linking, data not shown
  direct stimulation of degranulation: neither recombinant nor purified C3a des-Arg^77 (or any other ligand) is able to directly stimulate degranulation

## C3a: 77 amino acid complement fragment
[4]
  IC50: 0.167 µM
  pD2 ± SE: 6.78 ± 0.10
[11]; CD88 expressed in RBL cells, competition binding, 4° C., read-out: IC50 (concentration of unlabelled ligand resulting in 50% of maximal radioligand binding)
  IC50: 23 µM
[12]; [14]
  IC50: 23 µM

## insulin
[5]; [13]
  stimulation of triglyceride synthesis: neither HEK nor HEK-C5L2 are responsive to insulin
[5]; non-transfected HEK cells
  stimulation of triglyceride synthesis: neither HEK nor HEK-C5L2 are responsive to insulin
